Reference: publication PMC12013264 (mSystems, 2025)
In brackets after ≈: the same amount, converted by molar mass. Where two headings read alike, the source gives them in different places.

Assays:
[1] = system: Cc1nnc(SCC2=C(C(=O)O)N3C(=O)[C@@H](NC(=O)Cn4cnnn4)[C@H]3SC2)s1; assay: purified protein; conditions: 100 mM sodium phosphate, pH 7.0, 37 °C
[2] = system: CC(C)(O/N=C(\C(=O)N[C@@H]1C(=O)N2C(C(=O)[O-])=C(C[n+]3ccccc3)CS[C@H]12)c1csc(N)n1)C(=O)O; assay: purified protein; conditions: 100 mM sodium phosphate, pH 7.0, 37 °C
[3] = system: C[C@@H](O)[C@H]1C(=O)N2C(C(=O)O)=C(S[C@@H]3CN[C@H](C(=O)N(C)C)C3)[C@H](C)[C@H]12; assay: purified protein; conditions: 100 mM sodium phosphate, pH 7.0, 37 °C
[4] = system: CO/N=C(\C(=O)N[C@@H]1C(=O)N2C(C(=O)[O-])=C(C[N+]3(C)CCCC3)CS[C@H]12)c1csc(N)n1; assay: purified protein; conditions: 100 mM sodium phosphate, pH 7.0, 37 °C
[5] = system: CCN1CCN(C(=O)N[C@@H](C(=O)N[C@@H]2C(=O)N3[C@@H]2SC(C)(C)[C@@H]3C(=O)O)c2ccccc2)C(=O)C1=O; assay: purified protein; conditions: 100 mM sodium phosphate, pH 7.0, 37 °C
[6] = system: C[C@@H](O)[C@H]1C(=O)N2C(C(=O)O)=C(SCCN=CN)C[C@H]12; assay: purified protein; conditions: 100 mM sodium phosphate, pH 7.0, 37 °C
KPC-3 = target: T1, KPC-3 (Klebsiella pneumoniae, UniProt Q93DC4); assay: isothermal titration calorimetry; type: binding
T1 construct: gene bla; signal peptide (1-29) removed, KPC30-293 in pET28a, E. coli BL21 Rosetta-gami DE3, His-tag cut with thrombin
Source text: isothermal titration calorimetry on KPC-3

[7] = system: T2, E. coli DH10B carrying KPC-3-Tn4401a-pET28a; assay: microbe, parasite or virus in culture; parameters: species or system E. coli DH10B or K. pneumoniae; CLSI standard broth microdilution MIC in triplicate, median values; conditions: Escherichia coli
T2 construct: DH10B full-length blaKPC-3 under Tn4401a promoter in pET28a
Source text: (§1) The blaKPC amplicons (full length) were cloned into the Tn4401a-pET28a plasmid between the BamHI (as the 5′ end upstream) and XbaI (as the 3′ end downstream) restriction sites, which is the opposite direction of conventional induced expression for removing the His-tag expression. This insertion was downstream of the blaKPC Tn4401a promoter. The Tn4401a promoter was inserted between the EcoRI and BamHI sites. KPC expression was achieved by inserting the natural promoter Tn4401a upstream of the blaKPC gene, thus avoiding the use of the pET-28a vector’s T7 promoter and the resulting His-tag fusion. E. coli DH10B strains containing the generated KPCs-Tn4401a-pET28a plasmid underwent antimicrobial susceptibility testing in triplicate using the standard broth microdilution, following the Clinical and Laboratory Standards Institute (CLSI) recommendations (CLSI M100-S34) .

[8] = system: T3, E. coli DH10B carrying KPC-2-Tn4401a-pET28a; assay: microbe, parasite or virus in culture; parameters: species or system E. coli DH10B or K. pneumoniae; CLSI standard broth microdilution MIC in triplicate, median values; conditions: Escherichia coli
T3 construct: DH10B full-length blaKPC-2 under Tn4401a promoter in pET28a
Source text: as §1

[9] = system: T4, Klebsiella pneumoniae Kpn with KPC-3; assay: microbe, parasite or virus in culture; parameters: species or system E. coli DH10B or K. pneumoniae; CLSI standard broth microdilution MIC in triplicate, median values
T4 construct: K. pneumoniae producing KPC-3, positive control

E. coli DH10B = system: T5, E. coli DH10B; assay: microbe, parasite or virus in culture; parameters: species or system E. coli DH10B or K. pneumoniae; CLSI standard broth microdilution MIC in triplicate, median values; conditions: Escherichia coli
T5 construct: DH10B empty plasmid control
Source text: as §1, with “M100-S34) . Klebsiella pneumoniae expressing KPC-3 and E. coli DH10B containing an empty plasmid served as positive and negative controls, respectively.” for “M100-S34) .”

T1 sequence (Q93DC4 30-293 limits assumed): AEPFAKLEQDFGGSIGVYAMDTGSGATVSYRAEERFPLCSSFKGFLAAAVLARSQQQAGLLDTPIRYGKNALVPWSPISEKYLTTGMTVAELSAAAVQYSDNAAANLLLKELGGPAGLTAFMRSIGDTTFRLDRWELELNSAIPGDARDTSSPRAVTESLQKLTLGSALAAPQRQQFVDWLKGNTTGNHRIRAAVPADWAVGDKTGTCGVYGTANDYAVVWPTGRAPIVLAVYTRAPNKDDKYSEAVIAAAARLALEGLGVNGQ

KPC-2 (Klebsiella pneumoniae)
Km [1]: 110 ± 3 µM
kcat [1]: 65 ± 5 s⁻¹
kcat/Km [1]: 590000 ± 41000 M⁻¹ s⁻¹
Km [2]: 590 ± 48 µM
kcat [2]: 3.27 ± 0.27 s⁻¹
kcat/Km [2]: 5500 ± 400 M⁻¹ s⁻¹
Km [3]: 16 ± 1 µM
kcat [3]: 8 ± 0.5 s⁻¹
kcat/Km [3]: 500000 ± 50000 M⁻¹ s⁻¹
Km [4]: 310 ± 23 µM
kcat [4]: 4.7 ± 0.1 s⁻¹
kcat/Km [4]: 15000 ± 1200 M⁻¹ s⁻¹
Km [5]: 793 ± 34 µM
kcat [5]: 7.7 ± 0.5 s⁻¹
kcat/Km [5]: 9700 ± 900 M⁻¹ s⁻¹
Km [6]: 98 ± 9 µM
kcat [6]: 28 ± 2 s⁻¹
kcat/Km [6]: 290000 ± 10000 M⁻¹ s⁻¹

NC(=O)[C@@H]1CC[C@@H]2CN1C(=O)N2OS(=O)(=O)O [avibactam]
Kd (KPC-3): 7.49 nM

Cc1nnc(SCC2=C(C(=O)O)N3C(=O)[C@@H](NC(=O)Cn4cnnn4)[C@H]3SC2)s1 [cefazolin]
MIC ([7]; read-out: MIC (mg/L) ^a / CZO): 256 mg/L (≈ 563 µM)
MIC ([8]; read-out: MIC (mg/L)^a / CZO): 256 mg/L (≈ 563 µM)
MIC ([9]; read-out: MIC (mg/L)^a / CZO): > 256 mg/L
MIC (E. coli DH10B; read-out: MIC (mg/L)^a / CZO): 2 mg/L (≈ 4.4 µM)

CO/N=C(\C(=O)N[C@@H]1C(=O)N2C(C(=O)O)=C(CSc3nc(=O)c(O)nn3C)CS[C@H]12)c1csc(N)n1 [ceftriaxone]
MIC (E. coli DH10B; read-out: MIC (mg/L)^a / CRO): < 0.125 mg/L

C[C@@H](O)[C@H]1C(=O)N2C(C(=O)O)=C(SCCN=CN)C[C@H]12 [imipenem]
MIC ([7]; read-out: MIC (mg/L) ^a / IPM): 2 mg/L (≈ 6.68 µM)
MIC ([8]; read-out: MIC (mg/L)^a / IPM): 1 mg/L (≈ 3.34 µM)
MIC ([9]; read-out: MIC (mg/L)^a / IPM): 16 mg/L (≈ 53.4 µM)
MIC (E. coli DH10B; read-out: MIC (mg/L)^a / IPM): 0.25 mg/L (≈ 0.835 µM)

CCN1CCN(C(=O)N[C@@H](C(=O)N[C@@H]2C(=O)N3[C@@H]2SC(C)(C)[C@@H]3C(=O)O)c2ccccc2)C(=O)C1=O [piperacillin]
MIC ([7]; read-out: MIC (mg/L) ^a / PIP): > 256 mg/L
MIC ([8]; read-out: MIC (mg/L)^a / PIP): > 256 mg/L
MIC ([9]; read-out: MIC (mg/L)^a / PIP): > 256 mg/L
MIC (E. coli DH10B; read-out: MIC (mg/L)^a / PIP): 2 mg/L (≈ 3.86 µM)

CO/N=C(\C(=O)N[C@@H]1C(=O)N2C(C(=O)O)=C(COC(N)=O)CS[C@H]12)c1ccco1 [cefuroxime]
MIC ([7]; read-out: MIC (mg/L) ^a / CXM): > 256 mg/L
MIC ([8]; read-out: MIC (mg/L)^a / CXM): > 256 mg/L
MIC ([9]; read-out: MIC (mg/L)^a / CXM): > 256 mg/L
MIC (E. coli DH10B; read-out: MIC (mg/L)^a / CXM): 4 mg/L (≈ 9.43 µM)

C[C@H]1[C@H](NC(=O)/C(=N\OC(C)(C)C(=O)O)c2csc(N)n2)C(=O)N1S(=O)(=O)O [aztreonam]
MIC (E. coli DH10B; read-out: MIC (mg/L)^a / ATM): < 0.125 mg/L

CO/N=C(\C(=O)N[C@@H]1C(=O)N2C(C(=O)[O-])=C(C[N+]3(C)CCCC3)CS[C@H]12)c1csc(N)n1 [cefepime]
MIC ([7]; read-out: MIC (mg/L) ^a / FEP): 8 mg/L (≈ 16.6 µM)
MIC ([8]; read-out: MIC (mg/L)^a / FEP): 4 mg/L (≈ 8.32 µM)
MIC ([9]; read-out: MIC (mg/L)^a / FEP): > 256 mg/L
MIC (E. coli DH10B; read-out: MIC (mg/L)^a / FEP): < 0.125 mg/L

C[C@@H](O)[C@H]1C(=O)N2C(C(=O)O)=C(S[C@@H]3CN[C@H](C(=O)N(C)C)C3)[C@H](C)[C@H]12 [meropenem]
MIC ([7]; read-out: MIC (mg/L) ^a / MEM): 0.25 mg/L (≈ 0.652 µM)
MIC ([8]; read-out: MIC (mg/L)^a / MEM): 0.25 mg/L (≈ 0.652 µM)
MIC ([9]; read-out: MIC (mg/L)^a / MEM): > 4 mg/L
MIC (E. coli DH10B; read-out: MIC (mg/L)^a / MEM): < 0.0312 mg/L

KPC-3 (Klebsiella pneumoniae)
Km [1]: 368 ± 16 µM
kcat [1]: 61 ± 2 s⁻¹
kcat/Km [1]: 170000 ± 13000 M⁻¹ s⁻¹
Km [2]: 233 ± 19 µM
kcat [2]: 2.7 ± 0.2 s⁻¹
kcat/Km [2]: 11000 ± 1200 M⁻¹ s⁻¹
Km [3]: 24 ± 1 µM
kcat [3]: 5.7 ± 0.4 s⁻¹
kcat/Km [3]: 230000 ± 16000 M⁻¹ s⁻¹
Km [4]: 512 ± 48 µM
kcat [4]: 4.5 ± 0.3 s⁻¹
kcat/Km [4]: 8900 ± 400 M⁻¹ s⁻¹
Km [5]: 1,097 ± 84 μM
kcat [5]: 5.2 ± 0.1 s⁻¹
kcat/Km [5]: 4800 ± 400 M⁻¹ s⁻¹
Km [6]: 64 ± 3 µM
kcat [6]: 33 ± 0.7 s⁻¹
kcat/Km [6]: 520000 ± 34000 M⁻¹ s⁻¹

CC(C)(O/N=C(\C(=O)N[C@@H]1C(=O)N2C(C(=O)[O-])=C(C[n+]3ccccc3)CS[C@H]12)c1csc(N)n1)C(=O)O [ceftazidime]
MIC ([7]; read-out: MIC (mg/L) ^a / CAZ): 64 mg/L (≈ 117 µM)
MIC ([8]; read-out: MIC (mg/L)^a / CAZ): 8 mg/L (≈ 14.6 µM)
MIC ([9]; read-out: MIC (mg/L)^a / CAZ): > 256 mg/L
MIC (E. coli DH10B; read-out: MIC (mg/L)^a / CAZ): 0.25 mg/L (≈ 0.457 µM)
